One data set addresses T1, NAD-PseFDH (Pseudomonas sp. 101, UniProt P33160).
T1 construct: N-terminal His6 tag followed by TEV site (His6 purified); source plasmid pZ-ASL; expressed in E. coli BL21(DE3)
T1 sequence (P33160 2-401): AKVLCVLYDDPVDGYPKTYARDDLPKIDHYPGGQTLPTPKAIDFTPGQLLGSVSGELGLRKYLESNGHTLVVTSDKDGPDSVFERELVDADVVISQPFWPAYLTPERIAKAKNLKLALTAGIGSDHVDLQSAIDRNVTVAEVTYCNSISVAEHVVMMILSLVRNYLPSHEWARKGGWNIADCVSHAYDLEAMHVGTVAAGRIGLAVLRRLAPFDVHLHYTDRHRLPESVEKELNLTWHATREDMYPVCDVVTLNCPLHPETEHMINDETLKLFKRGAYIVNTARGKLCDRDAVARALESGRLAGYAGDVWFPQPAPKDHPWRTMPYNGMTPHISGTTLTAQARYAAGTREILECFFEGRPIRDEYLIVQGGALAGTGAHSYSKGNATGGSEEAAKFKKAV
As to the kind of experiment: FDH activity assay with formate. In kind it is biochemical.

The test system of another data set is O=C(O)C(=O)CF. As to the kind of experiment: purified protein. The note with it: reductive amination, 0.5 mM NADH, 200 mM NH4Cl, 50 mM sodium phosphate pH 8.0, 30 °C. It is filed as biochemical, Vibrio proteolyticus.
For another data set, the system named is CC(=O)C(=O)O. As to the kind of experiment: purified protein. It is filed as biochemical, Vibrio proteolyticus. Particulars: reductive amination, 0.5 mM NADH, 200 mM NH4Cl, 50 mM sodium phosphate pH 8.0, 30 °C.
In a further data set the target is T2, SlALR (Streptomyces lavendulae, UniProt Q65YW7).
T2 construct: gene alr; expressed in E. coli BL21(DE3), Ni-NTA purified
T2 sequence (Q65YW7 2-378): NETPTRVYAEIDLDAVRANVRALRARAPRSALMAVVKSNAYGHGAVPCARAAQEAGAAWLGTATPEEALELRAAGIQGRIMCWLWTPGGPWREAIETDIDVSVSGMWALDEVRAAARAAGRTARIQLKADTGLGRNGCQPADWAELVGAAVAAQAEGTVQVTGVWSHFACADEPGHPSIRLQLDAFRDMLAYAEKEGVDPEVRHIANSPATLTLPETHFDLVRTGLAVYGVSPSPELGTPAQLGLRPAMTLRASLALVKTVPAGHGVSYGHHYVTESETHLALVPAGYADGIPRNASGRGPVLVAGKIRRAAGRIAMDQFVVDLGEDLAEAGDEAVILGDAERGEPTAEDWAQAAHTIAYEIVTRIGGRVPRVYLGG
In words: HPLC of released pyruvate. It is filed as biochemical. Particulars: beta-elimination of fluoride; 10 mM substrate, 0.02 or 0.1 μM enzyme, 50 μM pyridoxal 5'-phosphate, pH 8.0, 30 °C, 18 h.

Substrate in data set [1]: CC(=O)C(=O)O
As to the kind of experiment: purified protein. It is filed as biochemical, Symbiobacterium thermophilum. The note with it: reductive amination, 0.5 mM NADPH, 200 mM NH4Cl, 50 mM sodium phosphate pH 8.0, 30 °C.

Substrate in data set [2]: O=C(O)C(=O)CF
As to the kind of experiment: purified protein. In kind it is biochemical, Symbiobacterium thermophilum. The note with it: reductive amination, 0.5 mM NADPH, 200 mM NH4Cl, 50 mM sodium phosphate pH 8.0, 30 °C.

`NC(=O)c1ccc[n+]([C@@H]2O[C@H](COP(=O)(O)OP(=O)(O)OC[C@H]3O[C@@H](n4cnc5c(N)ncnc54)[C@H](O)[C@@H]3O)[C@@H](O)[C@H]2O)c1` [NAD^+]: the “FDH activity assay with formate” value on NAD-PseFDH (formate as co-substrate) is “confirmed the high specificity for either cofactor of the purified NAD-^PseFDH and NADP-^PseFDH enzymes”.

Turning to VpALD (Vibrio proteolyticus), in the data set on O=C(O)C(=O)CF, the Km – broadly, the concentration of substrate that gives half-maximal velocity – came to 0.18 ± 0.02 mM; the Vmax – broadly, the top rate of the reaction or transport when substrate is in excess – came out at 11.9 µmol/min/mg; the kcat – broadly, the maximal rate divided by the concentration of active sites – was determined as 8.3 ± 0.3 s⁻¹; the kcat/Km (as a rule, the turnover number divided by the Michaelis constant) turned out to be 46100 M⁻¹ s⁻¹. In the data set on CC(=O)C(=O)O, the Km is reported as 0.29 ± 0.04 mM, the maximum rate (Vmax) turned out to be 247 µmol/min/mg, the kcat amounted to 173 ± 8 s⁻¹ and the kcat/Km stood at 597000 M⁻¹ s⁻¹.

In the case of `N[C@H](CF)C(=O)O` [(S)-FAla, (S)-3-fluoroalanine], the “HPLC of released pyruvate” value on SlALR was “(R)-FAla and (S)-FAla were transformed by ^SlALR into Pyr”.

Consider `N[C@@H](CF)C(=O)O` [(R)-FAla, (R)-3-fluoroalanine], for which the “HPLC of released pyruvate” value at SlALR was “(R)-FAla and (S)-FAla were transformed by ^SlALR into Pyr”.

Turning to `O=CO` [formate], at NAD-PseFDH (NAD+ as co-substrate), the “FDH activity assay with formate” value is recorded as “the functionality of both ^PseFDH enzymes was verified on formate”.

B1: StDAPDH (Symbiobacterium thermophilum IAM 14863) (protein)
chain: DKLRVAVVGYGNVGRYALEAVQAAPDMELVGVVRRKVLAATPPELTGVRVVTDISQLEGVQGALLCVPTRSVPEYAEAMLRRGIHTVDSYDIHGDLADLRRRLDPVAREHGAAAVISAGWDPGTDSIIRALLEFMAPKGITYTNFGPGMSMGHSVAVKAIPGVRDALSMTIPAGMGVHKRAVYVELEPGADFAEVERAIKTDPYFVRDETRVTQVESVSALMDVGHGVVMERKGVSGATHNQLFRFEMRINNPALTAQVMVAALRAAARQKPGCYTMIEIPVIDYLPGDREAWIRKLV
notes: expressed in E. coli BL21(DE3), Ni-NTA purified
As for B1, in “purified protein [1]”, the Km was found to be 6.7 ± 0.3 mM, the Vmax stood at 1.81 µmol/min/mg, the kcat was found to be 1.05 ± 0.01 s⁻¹ and the kcat/Km stood at 160 M⁻¹ s⁻¹. For the same molecule, in “purified protein [2]”, the Michaelis constant (Km) stood at 14.0 ± 0.6 mM, the Vmax came to 0.161 µmol/min/mg, the kcat was 0.093 ± 0.001 s⁻¹ and the specificity constant (kcat/Km) is 6.6 M⁻¹ s⁻¹.
